Experimental data as given in US20220089784A1.

B1: 8DC3 scFv (scFv, V domains shown)
VH: QVQLVQSGGGLVKPGGSLRLSCAASGFTFSSHSMNWVRQAPGKGLEWVSSISSSSSYIYYADSVKGRFTISRDNSKNSLYLQLNSLRAEDTAVYYCARGDHDFRSGYYGMDVWGQGTMVTVSS
VL: AELTQDPAVSVALGQTVRITCQGDSLRNYYASWYQQKPGQAPVLVIYGKNIRPSGIPDRFSGSSSGNTASLTITGAQAEDEADYYCNSRDSNGNHYVFGTGTKVTVL
B2: 19D22 scFv (scFv)
scFv: QIQLLQSGAELVRPGTSVKMSCKAAGYPFTSYWMGWVKQRPGHGLEWIGDIYPGGPYTNYNEKFKGKATLTADTSSSTAYMQFSSLTSEDSAIYYCALYGQVGSYAMDYWGQGTSVTVSSVDLKSGGSTSGSGKPGSGEGSSGSARQIVLTQSPAIMSASPGEKVTMTCSASSSVSYMYWYQQKPGSSPRLLIYDTSNLASGVPVRFSGSGSGTSYSLTISRMEAEDAATYYCQQWSSYPPITFGAGTKLEIK
B3: 18D10 scFv (scFv)
scFv: QVQLKQSGIEVMKPGASVKLSCKASGYPFTAYWIEWVKQRPGHGLEWIGEFLPGGISTNFNEKFKGKATFSADTSSNSAYIQLNSLTTEDSAIYYCVLTGTGFDYWGQGTSVTVSSVDLKSGGSTSGSGKPGSGEGSSGSARENVLTQSPAIMSASPGEKVTMTCSASSSVSYMHWYQQKSGTSPKRWIYDTSKLASGVPARFSGSGSGTSYSLTISSMEAEDAATYYCQQWSSNPLTFGAGTKLELK
B4: 18E5 scFv (scFv)
scFv: EVQLQESGPELVKPGASVKISCKASGYTFTDHNMDWVKQSLGKSLEWIGDINPNNGGAVYNQNFKGKATLTVDKSSSTAYMELRSLTSEDTAVYYCARYGYYGYFDYWGQGTTLTVSSVDLKSGGSTSGSGKPGSGEGSSGSARQIVLTQSPAIMSASPGEKVTMTCRASSSVSSSYLHWYQQKPGSSPKLWIYSTSNLASGVPARFSGSGSGTSYSLTISSVEAEDAATYYCQQYDSSPSTFGAGTKLEIK
B5: 16B3 scFv (scFv)
scFv: EVQLQQSGPELVKPGASVKITCKASGYTFTDNNMDWVKQSHGKSLEWIGDINPNNGGSIYNQKFKGKASLTLDKSSSTAYMELRSLTSEDTAVYYCARWGYYGSLAYWGQGTLVTVSSVDLKSGGSTSGSGKPGSGEGSSGSARQNVLTQSPAIMSASPGEKVTMTCSASSSVSSRYLHWYQQKSGASPKLWIYGTSNLASGVPARFSGSGSGTSYSLTISSVEAEDAATYYCQQYHSDPLTFGGGTKLEIK
B6: 19D2 scFv (scFv)
scFv: EVQLQQSGGELARPGSSVKLSCKASGYSFTGYSLTWVKQTPGQGLEWIGEIYPRSGNTYYNENFQGKATLTADESSSTAYMELRSLTSEDSAVYFCARDFYDYDGGGRGYWGQGTTLTVSSVDLKSGGSTSGSGKPGSGEGSSGSARDIVMTQTPAIMSASPGEKVTITCSASSSVSYMHWYQQKPGTSPKLWIYSTSNLASGVPARFSGSGSGTSYSLTISRMEAEDAATYYCQQRSSYPYTFGGGTKLEIK
B7: 19A9 scFv (scFv)
scFv: EVQLQQPGSELARPGASVKLSCKASGYTFTSYPITWVKQTTGQGLEWIGEIYPRSGNTYYNEKFKGKATLTADKSSSTAYMELRSLTSEDSAVYFCARDYYDYAGGGRGYWGQGTTLTVSSVDLKSGGSTSGSGKPGSGEGSSGSARDIVLTQSPAIMSASPGGKITITCSASSSVSYMHWFQQKPGTSPKLWIYSTSNLASGVPARFSGSGSGTSYSLTISRMEAEDAATYYCQQRSSYPYTFGGGTKLEIK
B8: 18A6 scFv (scFv)
scFv: EVQLQQSGPELVKPGASVKISCKASGYTFTDNYINWVKQRPGQGLEWIGWIYPGSGNTKYNEKFKGKATLTVDTSSNTAYMQLTGLASDDSAVYFCARVNFYVSWDYWGQGTSVTVSSVDLKSGGSTSGSGKPGSGEGSSGSAREIVLTQSPAIMSASPGEKVTMTCSASSSISYMHWFQQKPGMSPKRRIFDTSKLASGVPARFSGSGSGTSYSLTISSMEAEDAGTYYCHQRSSYPFTFGGGTKLELK
B9: 19B6 scFv (scFv)
scFv: QVQLQQSGAELVKPGASVKISCKASGYTFTDNYINWVKQRPGQGLEWIGWIHPGSGNAKYNEKFRAKATLTVDTSSNTAYMQLSSLTSEDSAVYFCARVGFRVNFDYWGQGTTLTVSSVDLKSGGSTSGSGKPGSGEGSSGSARQIVLTQSPAIMSASPGEKVTMTCSASSSLSYVHWYQQKPGSSPKPWIYATSNLVSGVPARFSGSRSGTSYSLTISSMEAEDAATYYCQQWSSYPPTFGAGTKLEIK
B10: 26B2 scFv (scFv)
scFv: DVQLQESGPELVKPGASVKISCKASGYTFADYYINWVKQSHGKSLEWIGDFNPNNGDHSYNQKFKDKATLTVDESSNTAYMELRSLTSEDSAVYYCTREFYYYFDVWGTGTSVTVSSVDLKSGGSTSGSGKPGSGEGSSGSARDIEMTQTPAIMSASPGEKVTMTCSASSSVSSRYLHWYQQKSGASPKLWIYGTSNLASGVPARFSGSGSGTSYSLTISNVEAEDAATYYCQQYHSDPLTFGAGTKLEIK
B11: 18F2 scFv (scFv)
scFv: EVQLQQSGPELMKPGASVKISCKASGYAFSRSWMNWVKQRPGKGLEWIGRIYPGDGDTNYNGKFKDKASLTADTSSSTAYMQLSSLTSEDSAVYFCTKSEGYYHNLGAYWGQGTTVTVSSVDLKSGGSTSGSGKPGSGEGSSGSAREIVLTQSPAIMSASPGQKVTITCSASSSVSYMHWYQQKSGTSPKRWIYDTSKLASGVPARFSGSGSGTSYSLIISSMEAEDAATYYCQQWRSNPPTFGGGTRLEIK
B12: 26E6 scFv (scFv)
scFv: EVQLQQSGPELVKPGASVKISCKASGYTFADYYINWVKQSHGKSLEWIGDFNPNNGDHSYNQKFKDKATLTVDESSNTAYMELRSLTSEDSAVYYCTREFYYYFDVWGTGTTVTVSSVDLKSGGSTSGSGKPGSGEGSSGSARDIVMSQSPLSLPVSLGDQAFISCRFSQSIVHSNGNTYLEWYLQKPGQSPKLLIYKVSNRFSGVPDRFSGSGSGTDFTLKISRVEAEDLGVYYCFQGSHVPYTFGGGTKLEIK
B13: 26G5 scFv (scFv)
scFv: EVQLQESGPGLAKPSQTLSLTCSVTGYSITSDYWNWIRKFPGNKLEYMGYISYSGSTYYNPSLKSRISITRDTSKNQYYLQLNSVTTEDTATYYCARSFYDGYLYFDYWGQGTTVTVSSVDLKSGGSTSGSGKPGSGEGSSGSAREIVLTQSPAILSASPGEKVTMTCSASSSVSYMYWYQQKPGSSPRLLIYDTSNLASGVPARFSGSGSGTSYSLTISRVEAEDAATYYCQQWSSYPPTFGDGTRLEIK
B14: 26D9 scFv (scFv)
scFv: DVQLQESGAELVKPGASVKLSCKASGFTFTDYWMHWVKQRPGQGLEWIGMIHPYNGDNNYHEKFKSKATLTVDKSSSTAYMQLSSLTTEDSAVYYCVRNDYDPYYYALDYWGQGTSLTVSAVDLKSGGSTSGSGKPGSGEGSSGSARQIVLTQSPAIMSASPGEKVTMSCRASSSVSYVYWYQQKPGSSPKPWIYRTSNLASGVPVRFSGSGSGTSYSLTISRVEAEDAATYYCQQWSSYPPTFGGGTKLEIK

Target: BoNT/C1 or other subtypes
Experiment: yeast scFv FACS

Question: For B1, which Kd is on record?
Answer: > 20 nM

Target: BoNT/B4 (Clostridium botulinum)
Experiment: yeast scFv FACS

Question: For B2, which Kd is on record?
Answer: 5.24 nM

Question: How did the Kd turn out when B3 was run?
Answer: 4.2 nM

Question: Which Kd does the source give for B4 here?
Answer: 1.36 nM

Question: For B5, which Kd is on record?
Answer: 0.71 nM

Question: Which Kd does the source give for B6 here?
Answer: 1.84 nM

Question: Which Kd does the source give for B7 here?
Answer: 1.04 nM

Question: With B8 as the binder, how does the Kd read?
Answer: 30.6 nM

Question: B9 was tested. Which Kd did it give?
Answer: 43.5 nM

Target: BoNT/B3 (Clostridium botulinum)
Experiment: yeast scFv FACS

Question: B2 was tested. Which Kd did it give?
Answer: 3.77 nM

Question: For B3, which Kd is on record?
Answer: 3.35 nM

Question: With B4 as the binder, how does the Kd read?
Answer: 2.56 nM

Question: How did the Kd turn out when B5 was run?
Answer: 0.49 nM

Question: How did the Kd turn out when B6 was run?
Answer: 1.47 nM

Question: B7 was tested. Which Kd did it give?
Answer: 1.18 nM

Question: B8 was tested. Which Kd did it give?
Answer: 27.9 nM

Question: How did the Kd turn out when B9 was run?
Answer: 866 nM

Target: BoNT/B2 (Clostridium botulinum)
Experiment: yeast scFv FACS

Question: With B2 as the binder, how does the Kd read?
Answer: 5 nM

Question: Which Kd does the source give for B3 here?
Answer: 5.57 nM

Question: B4 was tested. Which Kd did it give?
Answer: 2.66 nM

Question: For B5, which Kd is on record?
Answer: 0.75 nM

Question: How did the Kd turn out when B10 was run?
Answer: 5.43 nM

Question: For B6, which Kd is on record?
Answer: 1.85 nM

Question: How did the Kd turn out when B7 was run?
Answer: 0.88 nM

Question: With B11 as the binder, how does the Kd read?
Answer: 8.75 nM

Question: With B12 as the binder, how does the Kd read?
Answer: 17.6 nM

Question: For B8, which Kd is on record?
Answer: 32.4 nM

Question: With B13 as the binder, how does the Kd read?
Answer: 30.5 nM

Question: Which Kd does the source give for B14 here?
Answer: 0.467 nM

Question: Which Kd does the source give for B9 here?
Answer: 35.6 nM
